According to patent publication US20230020729A1 (Memorial Sloan Kettering, published 2023):

T1: human Fc Receptor-Like 5 (FcRL5), full length, expressed on cells (human, UniProt Q96RD9 16-977)
T1 construct: also called CD307e; IRTA2
T1 sequence: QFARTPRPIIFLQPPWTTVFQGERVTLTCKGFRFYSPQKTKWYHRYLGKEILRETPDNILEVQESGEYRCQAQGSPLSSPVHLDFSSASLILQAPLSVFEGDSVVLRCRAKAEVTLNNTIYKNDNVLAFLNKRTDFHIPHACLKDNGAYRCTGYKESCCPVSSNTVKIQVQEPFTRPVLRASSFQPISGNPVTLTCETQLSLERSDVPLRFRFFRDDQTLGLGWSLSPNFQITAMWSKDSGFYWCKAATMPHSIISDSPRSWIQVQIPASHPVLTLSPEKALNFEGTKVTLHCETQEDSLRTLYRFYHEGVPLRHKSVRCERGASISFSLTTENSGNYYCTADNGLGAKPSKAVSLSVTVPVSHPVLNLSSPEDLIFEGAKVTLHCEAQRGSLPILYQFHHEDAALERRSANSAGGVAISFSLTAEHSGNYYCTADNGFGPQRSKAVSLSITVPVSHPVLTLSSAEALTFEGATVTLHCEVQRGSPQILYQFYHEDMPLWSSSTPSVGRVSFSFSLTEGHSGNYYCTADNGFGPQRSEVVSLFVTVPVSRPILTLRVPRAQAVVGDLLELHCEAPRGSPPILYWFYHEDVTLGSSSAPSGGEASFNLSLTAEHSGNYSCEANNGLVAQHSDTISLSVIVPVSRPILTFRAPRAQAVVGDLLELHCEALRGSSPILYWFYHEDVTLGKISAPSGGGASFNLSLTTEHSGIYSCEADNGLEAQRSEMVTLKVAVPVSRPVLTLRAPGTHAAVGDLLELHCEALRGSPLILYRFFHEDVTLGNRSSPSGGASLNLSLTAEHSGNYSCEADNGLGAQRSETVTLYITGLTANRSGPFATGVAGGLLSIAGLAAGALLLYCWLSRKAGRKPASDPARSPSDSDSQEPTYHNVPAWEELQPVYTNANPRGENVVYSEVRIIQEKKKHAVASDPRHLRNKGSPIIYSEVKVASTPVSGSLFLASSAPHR


Target: T1, human Fc Receptor-Like 5 (FcRL5), full …
Test: scFv phage: ELISA on His-tag FcRL5, flow cytometry on FcRL5-overexpressing 3T3 and Raji cells

Binder	binding result
ET200-112 scFv (scFv, VL-linker-VH; screened as scFv phage clone) scFv: QAVLTQPPSASGTPGQRVTISCSGSSSNIGSNTVNWYQQLPGTAPKLLMYSNDQRPSGVPDRFSGSKSGTSASLAISGLQSEDEADYYCAAWDDSLNGYVFAAGTQLTVLSSRGGGGSGGGGSGGGGSLEMAQVQLQQWGAGLLKPSETLSLTCAVYGGSFSGYYWSWIRQPPGKGLEWIGEINHSGSTNYNPSLKSRVTISVDTSKNQFSLKLSSVTAADTAVYYCAREGLDAFDIWGQGTMVTVSS	binds
ET200-115 scFv (scFv, VL-linker-VH; screened as scFv phage clone) scFv: QSVLTQPPSVSGAPGQRVTISCTGSSSNIGARYDVHWYQQLPGTAPRLLISANYDRPSGVPDRFSGSKSGTSASLAITGLQAEDEADYYCQSYDSSVSAWVFGGGTKVTVLGSRGGGGSGGGGSGGGGSLEMAEVQLVQSGAEVKEPGASVRISCQASGYNFISYYMHWVRQAPGQGLEWMGTINPGSGETDYSQKLQGRVTMTRDPSTGTFDMGLSSLTSGDTAVYYCATGLIRGASDAFNIWGRGTMVTVSS	binds
ET200-123 scFv (scFv, VL-linker-VH; screened as scFv phage clone) scFv: QAVLTQPPSASGTPGQRVTISCSGSSSNIGSNTVNWYQQLPGTAPKLLMYNNDQRPSGVPDRFSGSKSGTSASLAISGLQSEDEADYYCAAWDDSLNGYVFGPGTKVTVLGSRGGGGSGGGGSGGGGSLEMAQVQLVESGAEVKKPGASVKVSCKASGYTFTSYGISWVRQAPGQGLEWMGWISAYNGNTNYAQKLQGRVTMTTDTSTSTAYMELRSLRSDDTAVYYCARDLSRGANPHYYYYYGMDVWGQGTTVTVSS	binds
ET200-005 scFv (scFv, VL-linker-VH; screened as scFv phage clone) scFv: QPVLTQPPSVSVVPGKTARITCGGKNIGSKSVHWYQQKPGQAPVVVIHYDSDRPSGIPERFSGSNSGNTATLTISRVEAGDEADYYCQVWDSSSDHPYVFGTGTKVTVLGSRGGGGSGGGGSGGGGSLEMAQVQLVQSGAEVKKPGASVKVSCKASGYTFTNYGISWVRQAPGQGLEWMGWISAYNGNTNYAHKLQGRVTMTTDTSTSTANMELRSLRPDDTAVYYCARSYFGSHDYWGQGTLVTVSS	binds
ET200-118 scFv (scFv, VL-linker-VH; screened as scFv phage clone) scFv: QAVLTQPASVSGSPGQSITISCTGTSSDVGGYNYVSWYQQHPGKAPKLMIYEVSNRPSGVSNRFSGSKSGNTASLTISGLQAEDEADYYCSSYTSSSTPYVFGAGTKVTVLGSRGGGGSGGGGSGGGGSLEMAEVQLVESGGGLVQPGRSLRLSCAASGFTFDDYAMHWVRQAPGKGLEWVSGISWNSGSIGYADSVKGRFTISRDNAKNSLYLQMNSLRAEDTALYYCAKARWTAVASDHHFDYWGQGTLVTVSS	binds
ET200-011 scFv (scFv, VL-linker-VH; screened as scFv phage clone) scFv: QSVVTQPPSVSAAPGQRVTISCSGSSSNISIYDVSWYQQLPGTAPKLLIYGNNKRPSGIADRFSGSTSGTSATLGITGLQTGDEADYYCGTWDDSLSGGVFGGGTKLTVLGSRGGGGSGGGGSGGGGSLEMAQMQLVQSGAEVKKPGSSVKVSCEASGGTLSSYAINWVRQAPGQGLEWMGGIIPMFGTAHYAQKFQGRVTITADESTKTAYMELSSLRSEDTAVYYCARGVHYASFDHWGQGTLVTVSS	binds
ET200-010 scFv (scFv, VL-linker-VH; screened as scFv phage clone) scFv: QSALTQPASVSGSPGQSITISCTGTSSDVGGYNSVSWYQQHPGKAPRLMIYDVSNRPSGVSNRFSGSKSGNTASLTISGLQAEDEADYYCSSYTSSSTPLVFGTGTKVTVLGSRGGGGSGGGGSGGGGSLEMAQVQLVQSGAEVKKPGASVKVSCKASGYTFTSYGISWVRQAPGQGLEWMGWISAYNGNTNYAQKLQGRVTMTTDTSTSTAYMELRSLRSDDTAVYYCARGAVAYHDWGQGTLVTVSS	binds
ET200-125 scFv (scFv, VL-linker-VH; screened as scFv phage clone) scFv: NFMLTQPHAVSESPGKTVTISCTRSSGSIASNYVQWYQQRPGSSPRTVIYEDNQRPSGVPGRFSGSIDSSSNSASLTISGLKTEDEADYYCQSYDSTSVLFGGGTKLTVLGSRGGGGSGGGGSGGGGSLEMAEVQLVQSGAEVKKPGSSVKVSCKASGGTFSSNSLSWVRQAPGQGLEWMGRIFPILGITNYAQKFQGRVTITADKSTSTAYMELSSLRSEDTAVYYCARGNYQWYDAFDIWGQGTMVTVSS	binds
ET200-121 scFv (scFv, VL-linker-VH; screened as scFv phage clone) scFv: QSVLTQPPSVSGAPGQRVTVSCTGSRSNIGAGYDVHWYQQLPGTAPKLLIYGNSNRPPGVPDRFSGSKSGTSASLVITGLQAEDAADYYCQSYDNTVRESPYVFGTGTKVTVLGSRGGGGSGGGGSGGGGSLEMAEVQLVQSGAEVKKPGASVKVSCKVSGYTLTELSMHWVRQAPGKGLEWMGGFDPEDGETIYAQKFQGRVTMTEDTSTDTAYMELSSLRSEDTAVYYCATESNLVSRHYYYYGMDVWGQGTTVTVSS	binds
ET200-116 scFv (scFv, VL-linker-VH; screened as scFv phage clone) scFv: QPVLTQPPSVSVSPGQTAAIPCSGDKLGDKFASWYQQKPGQSPVLVIYQDTKRPSGIPERFSGSNSGNTATLTISGTQAMDEADYYCQTWASGIVVFGGGTKLTVLGSRGGGGSGGGGSGGGGSLEMAQVQLQQSGPGLVKPSQTLSLTCAISGDSVSSNSAAWNWIRQSPSRGLEWLGRTYYRSKWYNDYAVSVKSRITINPDTSKNQFSLQLNSVTPEDTAVYYCARERSGWKGFDYWGQGTLVTVSS	binds
ET200-113 scFv (scFv, VL-linker-VH; screened as scFv phage clone) scFv: QSVVTQPPSVSAAPGQKVTISCSGSSSNIGNNYVSWYQQLPGTAPKLLIYDNNKRPSGIPDRFSGSKSGTSATLGITGLQTGDEADYYCGTWDSSLSAAYVFGTGTKVTVLGSRGGGGSGGGGSGGGGSLEMAQVQLVQSGAEVKKPGASVKVSCKASGYSFTSYTISWVRQAPGQGLEWMGWVSTYNGLRNYAQNLQGRVTMTTDTLTTTAYMELRSLRSDDTAVYYCVREGSPDYGDFAAFDYWGQGTLVTVSS	binds
ET200-009 scFv (scFv, VL-linker-VH; screened as scFv phage clone) scFv: QSVLTQPPSASGTPGQTVTISCSGSNSNIGSNYVYWYQQLPGTAPKLLIYRNNQRPSGVPDRFSGSKSGTSASLAISGLRSEDEADYYCAAWDDSLSAYVFGTGTKVTVLGSRGGGGSGGGGSGGGGSLEMAQVQLVQSGAEVKKPGASVKVSCKASGYTFTSYGISWVRQAPGQGLEWMGWISAYNGNTNYAQKLQGRVTMTTDTSTSTAYMELRSLRSDDTAVYYCARSSGNMVSWKDMWGQGTLVTVSS	binds
ET200-124 scFv (scFv, VL-linker-VH; screened as scFv phage clone) scFv: SYVLTQPPSVSVAPGKTARISCGGNDIGSKSVFWYQQRPGQAPVLVVYDDSDRPSGLPERFSGFNSGNTATLTISRVEAGDEADYYCQVWDSSSDHYVFGTGTKVTVLGSRGGGGSGGGGSGGGGSLEMAQVQLVESGGGLVQPGRSLRLSCAASGFTFDDYAMHWVRQAPGKGLEWVSGISWNSGSIGYADSVKGRFTISRDNAKNSLYLQMNSLRAEDTALYYCAKDITYGSGSYGAFDIWGQGTMVTVSS	binds
